Source: PMC9958104, “Arabidopsis histone H3 lysine 9 methyltransferases KYP/SUVH5/6 are involved in leaf development by interacting with AS1-AS2 to repress KNAT1 and KNAT2” (Communications Biology, 2023)

T1: MBP-KYP recombinant protein (Arabidopsis thaliana, UniProt Q8GZB6 1-624)
T1 construct: KRYPTONITE (KYP/SUVH4), Arabidopsis thaliana; KYP CDS cloned into the pMAL-c5v vector; The purification is not described; source: E. coli BL21(DE3), recombinant protein
T1 sequence (looked up): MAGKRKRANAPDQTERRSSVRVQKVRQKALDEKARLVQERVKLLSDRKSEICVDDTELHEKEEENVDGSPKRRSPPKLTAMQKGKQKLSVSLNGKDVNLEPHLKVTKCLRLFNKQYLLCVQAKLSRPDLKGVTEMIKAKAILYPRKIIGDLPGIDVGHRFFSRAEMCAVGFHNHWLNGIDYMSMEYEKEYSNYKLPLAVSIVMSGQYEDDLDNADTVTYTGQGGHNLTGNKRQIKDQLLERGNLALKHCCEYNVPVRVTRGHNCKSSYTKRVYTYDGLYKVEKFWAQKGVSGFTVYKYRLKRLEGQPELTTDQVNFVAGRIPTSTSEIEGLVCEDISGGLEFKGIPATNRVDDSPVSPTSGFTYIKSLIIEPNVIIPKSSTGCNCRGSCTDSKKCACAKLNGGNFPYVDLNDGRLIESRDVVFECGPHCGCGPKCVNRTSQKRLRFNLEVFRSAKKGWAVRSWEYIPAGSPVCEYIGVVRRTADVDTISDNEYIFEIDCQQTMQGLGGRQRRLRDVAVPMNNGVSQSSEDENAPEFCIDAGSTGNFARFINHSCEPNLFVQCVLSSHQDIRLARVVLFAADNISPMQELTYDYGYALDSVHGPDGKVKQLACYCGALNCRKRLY

B1: maltose-binding protein (MBP) fused AS1 (MBP-AS1) (natural protein, Arabidopsis thaliana, UniProt O80931 1-367, looked up)
chain: MKERQRWSGEEDALLRAYVRQFGPREWHLVSERMNKPLNRDAKSCLERWKNYLKPGIKKGSLTEEEQRLVIRLQEKHGNKWKKIAAEVPGRTAKRLGKWWEVFKEKQQREEKESNKRVEPIDESKYDRILESFAEKLVKERSNVVPAAAAAATVVMANSNGGFLHSEQQVQPPNPVIPPWLATSNNGNNVVARPPSVTLTLSPSTVAAAAPQPPIPWLQQQQPERAENGPGGLVLGSMMPSCSGSSESVFLSELVECCRELEEGHRAWADHKKEAAWRLRRLELQLESEKTCRQREKMEEIEAKMKALREEQKNAMEKIEGEYREQLVGLRRDAEAKDQKLADQWTSRHIRLTKFLEQQMGCRLDRP
notes: source: E. coli BL21(DE3), recombinant protein
B2: maltose-binding protein (MBP) fused AS2 (MBP-AS2) (natural protein, Arabidopsis thaliana, UniProt O04479 1-199, looked up)
chain: MASSSTNSPCAACKFLRRKCQPECVFAPYFPPDQPQKFANVHKVFGASNVTKLLNELHPSQREDAVNSLAYEADMRLRDPVYGCVGVISLLQHQLRQLQIDLSCAKSELSKYQSLGILAATHQSLGINLLAGAADGTATAVRDHYHHHQFFPREQMFGGLDVPAGNNYDGGILAIGQITQFQQPRAAAGDDGRRTVDPS
notes: as for B1

What was measured:
[1] = molecular target: T1, MBP-KYP recombinant protein; experiment: quartz crystal microbalance (QCM); AffinixQN QCM biosensor; first protein immobilised on the Au electrode until saturation (AS1 for the AS1-KYP pair), second protein injected repeatedly; 50 mM Tris-HCl, 150 mM NaCl, 1 mM DTT, 25 °C; Langmuir equation; three replicates; details: both partners purified
[2] = molecular target: B1; experiment: as above; details: both partners purified

Row | Kd [1] [µM] | Kd [2] [µM] | Binder
1 | 33.6 |  | B1
2 | 18.6 | 25.3 | B2
